Measured values published in patent US11780902B1, “Receptor/histidine kinase fusion constructs and uses thereof” (priority 2018, dated 2023).

Legend:
[1] = cited from earlier work
[2] = tested on: GFP reporter gene; assay: Maltose / aspartate induction of Tar HK fusions, GFP reporter gene fluorescence, FACS screen; assay type: cell-based, E. coli; conditions: for maltose inducibility: maltose via MBP
[3] = tested on: PhoB responsive promoter driving a β-galactosidase reporter gene; conditions: E. coli BW23423; maltose control vs ribose; X-Gal; functional = off without ligand, on with ligand
[4] = tested on: plant pho promoter: luciferase reporter gene; assay: Luciferase reporter in transgenic Arabidopsis, circuit RBP→TrzPhoR→PhoBVP64, exposure to ribose; assay type: in vivo; conditions: 0 hours vs 24 hours after exposure to ribose
Experimental: FIG. 9A and FIG. 9B. Imaging of a luciferase gene reporter in transgenic Arabidopsis with the signaling circuit Ribose Binding Protein (RBP)→TrzPhoR→PhoBVP64 activating a plant pho promoter: luciferase reporter gene FIG. 9A. Four transgenic Arabidopsis lines at 0 hours (no exposure to ribose) top panel and 24 hours after exposure to ribose bottom panel. FIG. 9B. Quantification of luciferase activity from FIG. 9A.
Because the ground state of a histidine kinase is such that the kinase is active, “kinase on” and the predominate signaling phenotype seen in non-functional fusions is “kinase on,” the inventors reasoned that the valine at the D position is essential in maintaining the “kinase off” state in the absence of ligand dependent signaling. Fusions where the D position valine is replaced by alanine, glycine (the two hydrophobic amino acids smaller than valine) or a methionine (the D position residue of PhoR) results in constitutive activation (FIG. 8). E. coli has 10 HKs, including EnvZ, with HAMP domains adjacent to the HK coiled coil (FIG. 8). EnvZ is the only HK with a valine in the A/D position. There are 4 other amino acids, glutamate, isoleucine, leucine and threonine that occupy the A/D position in the 9 other E. coli HKs with a HAMP/HK coiled coil A/D overlap. […]

[5] = tested on: PhoB responsive promoter driving a β-galactosidase reporter gene; assay type: cell-based, E. coli

B1: Taz: Tar chemotactic receptor fused to EnvZ histidine kinase at conserved HAMP domain, SEQ ID NO:38 (protein)
chain: MINRIRVVTLLVMVLGVFALLQLISGSLFFSSLHHSQKSFVVSNQLREQQGELTSTWDLMLQTRINLSRSAVRMMMDSSNQQSNAKVELLDSARKTLAQAATHYKKFKSMAPLPEMVATSRNIDEKYKNYYTALTELIDYLDYGNTGAYFAQPTQGMQNAMGERFAQYALSSEKLYRDIVTDNADDYRFAQWQLAVIALVVVLILLVAWYGIRRMLLTPLAKIIAHIREIAGGNLANTLTIDGRSEMGDLAQSVSHMAAGVKQLADDRTLLMAGVSHDLRTPLTRIRLATEMMSEQDGYLAESINKDIEECNAIIEQFIDYLRTGQEMPMEMADLNAVLGEVIAAESGYEREIETALYPGSIEVKMHPLSIKRAVANMVVNAARYGNGWIKVSSGTEPNRAWFQVEDDGPGIAPEQRKHLFQPFVRGDSARTISGTGLGLAIVQRIVDNHNGMLELGTSERGGLSIRAWLPVPVTRAQGTTKEG
modifications: Fusion protein
In the case of B1, the induction by aspartate ([1]; aspartate) is listed as “retains the ability to be induced by aspartate” and the response to maltose ([1]; maltose) is listed as “no longer shows a response to maltose”.

B2: TazPhoR 61: Maltose inducible directed evolution variant of TazPhoR, SEQ ID NO:18 (protein)
chain: MKLLSKTFLILTLTFFFFGIALAKMINRIRVVTLLVMVLGVFALLQLISGSLFFSSLHHSQKSFVVSNQLREQQGELTSTWDLMLQTRINLSRSAVRMMMDSSNQQSNAKVELLDSARKTLAQAATHYKKFKSMAPLPEMVATSRNIDEKYKNYYTALTELIDYLDYGNTGAYFAQPTQGMQNAMGEAFAQYALSSEKLYRDIVTDNADDYRFAQWQLAVIALVVVLILLVAWYGIRRMLLTPLAKIIAHIREIAGGNLANTLTIDGRSEMGDLAQSVSHMAAGVKQLRRNFFANVSHELRTPLTVLQGYLEMMNEQPLEGAVREKALHTMREQTQRMEGLVKQLLTLSKIEAAPTHLLNEKVDVPMMLRVVEREAQTLSQKKQTFTFEIDNGLKVSGNEDQLRSAISNLVYNAVNHTPEGTHITVRWQRVPHGAEFSVEDNGPGIAPEHIPRLTERFYRVDKARSRQTGGSGLGLAIVKHAVNHHESRLNIESTVGKGTRFSFVIPERLIAKNSD
modifications: Fusion protein
For B2, the maltose inducibility [2] was “Maltose inducible”.

B3: TrzPhoR: coiled coil based fusion of Trz (Trg chemotactic receptor/EnvZ histidine kinase fusion) to PhoR histidine kinase, SEQ ID NO:2 (protein)
chain: MNTTPSQRLGFLHHIRLVPLFACILGGILVLFALSSALAGYFLWQADRDQRDVTAEIEIRTGLANSSDFLRSARINMIQAGAASRIAEMEAMKRNIAQAESEIKQSQQGYRAYQNRPVKTPADEALDTELNQRFQAYITGMQPMLKYAKNGMFEAIINHESEQIRPLDNAYTDILNKAVKIRSTRANQLAELAHQRTRLGGMFMIGAFVLALVMTLITFMVLRRIVIRPLQHAAQRIEKIASGDLTMNDEPAGRNEIGRLSRHLQHMAAGVKQLEGARRNFFANVSHELRTPLTVLQGYLEMMNEQPLEGAVREKALHTMREQTQRMEGLVKQLLTLSKIEAAPTHLLNEKVDVPMMLRVVEREAQTLSQKKQTFTFEIDNGLKVSGNEDQLRSAISNLVYNAVNHTPEGTHITVRWQRVPHGAEFSVEDNGPGIAPEHIPRLTERFYRVDKARSRQTGGSGLGLAIVKHAVNHHESRLNIESTVGKGTRFSFVIPERLIAKNSD
For B3, the “signaling phenotype of the fusion (ribose inducible β-galactosidase activity)” value [3] was “functional” and the “function in the plant detector system (luciferase activity)” value [4] was “highly functional”.

B4: Tac8: TrzChim3-8 with the chemotactic receptor Tar replacing the chemotactic receptor Trg, SEQ ID NO:22 (protein)
chain: MINRIRVVTLLVMVLGVFALLQLISGSLFFSSLHHSQKSFVVSNQLREQQGELTSTWDLMLQTRINLSRSAVRMMMDSSNQQSNAKVELLDSARKTLAQAATHYKKFKSMAPLPEMVATSRNIDEKYKNYYTALTELIDYLDYGNTGAYFAQPTQGMQNAMGERFAQYALSSEKLYRDIVTDNADDYRFAQWQLAVIALVVVLILLVAWYGIRRMLLTPLAKIIAHIREIAGGNLANTLTIDGRSEMGDLAQSVSHMAAGVKQLRGVRTLLMAGVSHDLRTPLTVLQGYLEMMNEQPLEGAVREKALHTMREQTQRMNAIIEQFIDYLRTGQEMPMEMADLNAVLGEVIAAESGYEREIETALYPGSIEVKMHPLSIKRAVANMVVNAARYGNGWIKVSSGTEPNRAWFQVEDDGPGIAPEQRKHLFQPFVRGDSARTISGTGLGLAIVQRIVDNHNGMLELGTSERGGLSIRAWLPVPVTRAQGTTKEG
modifications: Fusion protein
For B4, the aspartate inducibility [2] was “aspartate inducibility of both fusions was observed” and the maltose inducibility [2] was “no maltose inducibility”.

B5: Tac40: Maltose inducible directed evolution variant of Tac8, SEQ ID NO:24 (protein)
chain: MINRIRVVTLLVMVLGVFALLQLISGSLFFSSLHHSQKSFVVSNQLREQQGELTSTWDLMLQTRINLSRSAVRMMMDSSNQQSNAKVELLDSARKTLAQAATHYKKFKSMAPLPEMVATSRNIDEKYKNYYTALTELIDYLDYGNTGAYFAQPTQGMQNAMGERFAQYALSSEKLYRDIVTDNADDYRFAQWQLAVIALVVVLILLVAWYGIRRMLLTPLAKIIAHIREIAGGNLANTLTIDGRSEMGDLAQSVSHMAAGVKQLVWRRTLLMAGVSHDLRTPLTVLQGYLEMMNEQPLEGAVREKALHTMREQTQRMNAIIEQFIDYLRTGQEMPMEMADLNAVLGEVIAAESGYEREIETALYPGSIEVKMHPLSIKRAVANMVVNAARYGNGWIKVSSGTEPNRAWFQVEDDGPGIAPEQRKHLFQPFVRGDSARTISGTGLGLAIVQRIVDNHNGMLELGTSERGGLSIRAWLPVPVTRAQGTTKEG
modifications: Fusion protein
With B5 the maltose inducibility [2] was “Maltose inducible”.

B6: PhoQTrzPhoR: Mg^2+ responsive PhoQ receptor fused to TrzPhoR at the D position, SEQ ID NO:40 (protein)
chain: MPGRSKWYRRWRPRSLQARQLLAASLSLVAFLALAGYALDVAFADTAEKNLRERLKNYASAYAANIDFVRDGSLYIGGQPPDPRFDVPGGGLYVEVVRPDESWTSMSAEGPNIPHGRMLEPRQEEFIGPLEMTQIDGSLGQLYRYGLGVSYVEREHGGEIPYTIYVMEDARSMGAQLRVFRGAVWFYLGSAGVVLLVLQAFILQWSLRPLRRVINELTKVQRGEIQRMSEQHPRELEPLTDSINAFIESVKQLEGARRNFFANVSHELRTPLTVLQGYLEMMNEQPLEGAVREKALHTMREQTQRMEGLVKQLLTLSKIEAAPTHLLNEKVDVPMMLRVVEREAQTLSQKKQTFTFEIDNGLKVSGNEDQLRSAISNLVYNAVNHTPEGTHITVRWQRVPHGAEFSVEDNGPGIAPEHIPRLTERFYRVDKARSRQTGGSGLGLAIVKHAVNHHESRLNIESTVGKGTRFSFVIPERLIAKNSD
modifications: Fusion protein
With B6 the “Mg^2+ signaling (β-galactosidase activity)” value [5] was “increase in Mg^2+ signaling”.

B7: TazPhoR: TrzPhoR fusion with the Tar chemotactic receptor replacing the Trg chemotactic receptor, SEQ ID NO:16 (protein)
chain: MKLLSKTFLILTLTFFFFGIALAKMINRIRVVTLLVMVLGVFALLQLISGSLFFSSLHHSQKSFVVSNQLREQQGELTSTWDLMLQTRINLSRSAVRMMMDSSNQQSNAKVELLDSARKTLAQAATHYKKFKSMAPLPEMVATSRNIDEKYKNYYTALTELIDYLDYGNTGAYFAQPTQGMQNAMGEAFAQYALSSEKLYRDIVTDNADDYRFAQWQLAVIALVVVLILLVAWYGIRRMLLTPLAKIIAHIREIAGGNLANTLTIDGRSEMGDLAQSVSHMAAGVKQLEGARRNFFANVSHELRTPLTVLQGYLEMMNEQPLEGAVREKALHTMREQTQRMEGLVKQLLTLSKIEAAPTHLLNEKVDVPMMLRVVEREAQTLSQKKQTFTFEIDNGLKVSGNEDQLRSAISNLVYNAVNHTPEGTHITVRWQRVPHGAEFSVEDNGPGIAPEHIPRLTERFYRVDKARSRQTGGSGLGLAIVKHAVNHHESRLNIESTVGKGTRFSFVIPERLIAKNSD
modifications: Fusion protein
For B7, the aspartate inducibility [2] was “aspartate inducibility of both fusions was observed” and the maltose inducibility [2] was “no maltose inducibility”.

B8: TazPhoR 86: Maltose inducible directed evolution variant of TazPhoR, SEQ ID NO:20 (protein)
chain: MKLLSKTFLILTLTFFFFGIALAKMINRIRVVTLLVMVLGVFALLQLISGSLFFSSLHHSQKSFVVSNQLREQQGELTSTWDLMLQTRINLSRSAVRMMMDSSNQQSNAKVELLDSARKTLAQAATHYKKFKSMAPLPEMVATSRNIDEKYKNYYTALTELIDYLDYGNTGAYFAQPTQGMQNAMGEAFAQYALSSEKLYRDIVTDNADDYRFAQWQLAVIALVVVLILLVAWYGIRRMLLTPLAKIIAHIREIAGGNLANTLTIDGRSEMGDLAQSVSHMAAGVKQLRVWRRNFFANVSHELRTPLTVLQGYLEMMNEQPLEGAVREKALHTMREQTQRMEGLVKQLLTLSKIEAAPTHLLNEKVDVPMMLRVVEREAQTLSQKKQTFTFEIDNGLKVSGNEDQLRSAISNLVYNAVNHTPEGTHITVRWQRVPHGAEFSVEDNGPGIAPEHIPRLTERFYRVDKARSRQTGGSGLGLAIVKHAVNHHESRLNIESTVGKGTRFSFVIPERLIAKNSD
modifications: Fusion protein
For B8, the maltose inducibility [2] was “Maltose inducible”.
